Patent publication US20130177570A1 (PURDUE RESEARCH FOUNDATION, published 2013)

Experiments:
[1] = molecular target: T1, recombinant human folate receptor beta (FRβ), residues 22 to 236 (human, UniProt P14207 22-236); assay: ELISA, recombinant FRβ coated, Fab detected with anti-FLAG-HRP
T1 construct: Produced in SF9 insect cells with baculovirus, then purified by nickel column and gel filtration; also called recombinant FRβ; FRβ protein
Method: To characterize the m909 antibody, an ELISA was performed as follows. FRβ, diluted in PBS, was coated on half of the wells of a 96 well plate at 50 ng/well overnight at 4° C. Wells were blocked with 100 μl of 4% milk/PBS (MPBS) for 1 hr at 37° C. For Fab binding kinetics, Fab was titrated from 3000 nM to 0.038 nM (1:5 serial dilutions) then 50 μl of diluted Fab was added to duplicate wells. After 2 hr incubation at 37° C., the wells were washed four times with PBST (PBS+0.05% Tween 20). Bound Fab was detected by incubating with anti-FLAG-horseradish peroxidase (HRP) mAb (1:1000) (Sigma) for 1 hr at 37° C. Wells were washed again with PBST. The HRP substrate 2,2′-azino-bis(3-ethylbenzthiazoline-6-sulphonic acid) (ABTS) was added (50 μl/well), and the absorbance at 405 nm was determined. For ELISA with IgG, a goat anti-human Fc IgG conjugated with HRP was used at 1:1000. FIG. 3 is a graph depicting the binding of m909 IgG₁ to FRβ.

[2] = molecular target: T1, recombinant human folate receptor beta …; assay: phage display panning and screening on coated FRβ protein
Method: Purified FRβ was used for panning of a human naïve (not deliberately immunized) Fab phage library. Briefly, 2 μg of FRβ was coated on a Maxisorp plate, which was then incubated with library phage (˜10¹² pfu) for 2 hr. After extensively washing the wells with PBS+0.05% Tween 20 (PBST), phage were rescued by incubating with exponentially growing TG1 bacteria and helper phage. The panning procedure was repeated three more times with more stringent conditions in the latter two rounds, including decreased amounts of FRβ protein and additional washes with PBST. Three hundred colonies were picked from the last two rounds of panning and rescued with helper phage.

T1 sequence (P14207 other isoform, or with tags, fused parts or gaps): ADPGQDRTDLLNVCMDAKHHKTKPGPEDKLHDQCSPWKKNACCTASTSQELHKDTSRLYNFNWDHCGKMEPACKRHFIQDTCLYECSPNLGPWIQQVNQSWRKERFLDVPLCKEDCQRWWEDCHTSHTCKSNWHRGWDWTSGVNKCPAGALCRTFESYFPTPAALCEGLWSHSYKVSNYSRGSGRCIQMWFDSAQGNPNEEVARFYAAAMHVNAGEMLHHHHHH

Binder	EC50 [1]	binding result [2]
m909 Fab (Fab, V domains shown, Soluble Fab expressed in E. coli HB2151; The phagemid adds His6 and FLAG tags at the C-terminus of the Fab) VH: EVQLVQSGAEVKKPGASVKVSCKASGYTFTSYAMHWVRQAPGQRLEWMGWINAGNGNTKYSQKFQGRVTITRDTSASTAYMELSSLRSEDTAVYYCARDISYGSFDYWGQGTLVTVSS VL: SSELTQDPAVSVALGQTVRITCQGDSLRSNYANWYQQKPGQAPVLVIYGQNNRPSGIPDRFSGSSSGNTASLTITGAQAADEADYYCDSRVSTGNHVVFGGGTKLTVLG	20 nM	–
m923 (Fab, V domains shown, Clone from the Fab phage library after light chain shuffling; also called clone m923) VH: EVQLVQSGAEVKKPGASVKVSCKASGYTFTSYAMHWVRQAPGQRLEWMGWINAGNGNTKYSQKFQGRVTITRDTSASTAYMELSSLRSEDTAVYYCARDISYGSFDYWGQGTLVTVSS VL: SSELTQDPAVSVALGQTVRITCQGDNLRSYYASWYRQKSGQAPVLVIYGKNNRPSGIPDRFSGSSSGNTASLTITAAQAEDEADYYCHSRKSRGNHLLFGGGTKLTVLG	–	binds
